The record followed here is the RNAGym collection of RNA variant scans (doi:10.7554/elife.90254).

B1: OR4K15 (parent)
chain: GUUAACGGUCAUAGGCCAUGGAAACUAGGAGCACCAUUUCGCUGCCAGUGAAGAAAUGAACAAAGAAAAUCUGGGCCAGGCAGGCAUCAAAAGAAAUAGUCUUGCGCUCAACCAGAAAGUCUGUAAUCAUUUUAAGGGUA

The variants in the data set derive from B1. The data set can be described thus: self-cleavage, relative activity (ratio to wild type); higher = more cleavage; in vitro, sequencing; the parent is a self-cleaving ribozyme.
For the variant GUUAACGGUCAUAGGCCAUGGAAACUAGGAGCACCAUUUCGCUGCCAGUGAAGAAAUGAACAAAGAAAAUCUGGGCCAGGCAGGCAUCAAAAGAGACAGUCUUGCGCUCAACCAGAAAGUCUGUAAUCAUUUUAAGGGUA [A95G U97C], the self-cleavage came out at 1.23.

Regarding GUUAACGGUCAUAGGCCAUGGAAACUAGGAGCACCAUUUCGCUGCCAGUGAAGAAAUGAACAAAGAAAAUCUGGGCCAGGCAGGCAUCAAAAGAUAUAGUCUUGCGCUCAACCAGAGAGUCUGUAAUCAUUUUAAGGGUA [A95U A117G], the self-cleavage was found to be 2.29.

As for GUUAACGGUCAUAGGCCAUGGAAACUAGGAGCACCAUUUCGCUGCCAGUGAAGAAAUGAACAAAGAAAAUCUGGGCCAGGCAGGCAUCAAAAGAGAUAGUCUUACGCUCAACCAGAAAGUCUGUAAUCAUUUUAAGGGUA [A95G G104A], the self-cleavage was 0.08.

Consider GUUAACGGUCAUAGGCCAUGGAAACUAGGAGCACCAUUUCGCUGCCAGUGAAGAAAUGAACAAAGAAAAUCUGGGCCAGGCAGGCAUCAAAAGAGAUAGUCUUGCGCUCAACCAGAAAGUCUGUAAUCAUUUUAAAGGUA [A95G G136A], for which the self-cleavage is 2.

For the variant GUUAACGGUCAUAGGCCAUGGAAACUAGGAGCACCAUUUCGCUGCCAGUGAAGAAAUGAACAAAGAAAAUCUGGGCCAGGCAGGCAUCAAAAGAGAUAGUCUCGCGCUCAACCAGAAAGUCUGUAAUCAUUUUAAGGGUA [A95G U103C], the self-cleavage was determined as 1.25.

In the case of GUUAACGGUCAUAGGCCAUGGAAACUAGGAGCACCAUUUCGCUGCCAGUGAAGAAAUGAACAAAGAAAAUCUGGGCCAGGCAGGCAUCAAAAGAGAUAGUCUGGCGCUCAACCAGAAAGUCUGUAAUCAUUUUAAGGGUA [A95G U103G], the self-cleavage was determined as 0.06.

Turning to GUUAACGGUCAUAGGCCAUGGAAACUAGGAGCACCAUUUCGCUGCCAGUGAAGAAAUGAACAAAGAAAAUCUGGGCCAGGCAGGCAUCAAAAGAGAUAGUCUUGCACUCAACCAGAAAGUCUGUAAUCAUUUUAAGGGUA [A95G G106A], the self-cleavage is 0.

On to GUUAACGGUCAUAGGCCAUGGAAACUAGGAGCACCAUUUCGCUGCCAGUGAAGAAAUGAACAAAGAAAAUCUGGGCCAGGCAGGCAUCAAAAGAGAUAGUCUUGUGCUCAACCAGAAAGUCUGUAAUCAUUUUAAGGGUA [A95G C105U], for which the self-cleavage was determined as 0.43.

Turning to GUUAACGGUCAUAGGCCAUGGAAACUAGGAGCACCAUUUCGCUGCCAGUGAAGAAAUGAACAAAGAAAAUCUGGGCCAGGCAGGCAUCAAAAGAGAUAGUCUUGGGCUCAACCAGAAAGUCUGUAAUCAUUUUAAGGGUA [A95G C105G], the self-cleavage was determined as 0.03.

Consider GUUAACGGUCAUAGGCCAUGGAAACUAGGAGCACCAUUUCGCUGCCAGUGAAGAAAUGAACAAAGAAAAUCUGGGCCAGGCAGGCAUCAAAAGAGAUAGUCUUGCGCUCAACCAGAAAGUCUGUAAGCAUUUUAAGGGUA [A95G U127G], for which the self-cleavage worked out at 2.23.

As for GUUAACGGUCAUAGGCCAUGGAAACUAGGAGCACCAUUUCGCUGCCAGUGAAGAAAUGAACAAAGAAAAUCUGGGCCAGGCAGGCAUCAAAAGAGAUAGUCUUGCGCUCAGCCAGAAAGUCUGUAAUCAUUUUAAGGGUA [A95G A111G], the self-cleavage was found to be 0.03.

As to GUUAACGGUCAUAGGCCAUGGAAACUAGGAGCACCAUUUCGCUGCCAGUGAAGAAAUGAACAAAGAAAAUCUGGGCCAGGCAGGCAUCAAAAGAGAUAGUCUUGCGCUCACCCAGAAAGUCUGUAAUCAUUUUAAGGGUA [A95G A111C], the self-cleavage is 0.02.

Consider GUUAACGGUCAUAGGCCAUGGAAACUAGGAGCACCAUUUCGCUGCCAGUGAAGAAAUGAACAAAGAAAAUCUGGGCCAGGCAGGCAUCAAAAGAGAUAGUCUUGCGCUCAUCCAGAAAGUCUGUAAUCAUUUUAAGGGUA [A95G A111U], for which the self-cleavage was found to be 0.15.

Turning to GUUAACGGUCAUAGGCCAUGGAAACUAGGAGCACCAUUUCGCUGCCAGUGAAGAAAUGAACAAAGAAAAUCUGGGCCAGGCAGGCAUCAAAAGAUAUAGUCUUGUGCUCAACCAGAAAGUCUGUAAUCAUUUUAAGGGUA [A95U C105U], the self-cleavage turned out to be 0.45.

GUUAACGGUCAUAGGCCAUGGAAACUAGGAGCACCAUUUCGCUGCCAGUGAAGAAAUGAACAAAGAAAAUCUGGGCCAGGCAGGCAUCAAAAGAUAUAGUCUUGCGCUCAACCAGAAAGUCUGUAAUCACUUUAAGGGUA [A95U U130C]: the self-cleavage stood at 0.47.

For the variant GUUAACGGUCAUAGGCCAUGGAAACUAGGAGCACCAUUUCGCUGCCAGUGAAGAAAUGAACAAAGAAAAUCUGGGCCAGGCAGGCAUCAAAAGAUAUGGUCUUGCGCUCAACCAGAAAGUCUGUAAUCAUUUUAAGGGUA [A95U A98G], the self-cleavage amounted to 1.46.

Regarding GUUAACGGUCAUAGGCCAUGGAAACUAGGAGCACCAUUUCGCUGCCAGUGAAGAAAUGAACAAAGAAAAUCUGGGCCAGGCAGGCAUCAAAAGAUAUAGUCUUGCGCUCAGCCAGAAAGUCUGUAAUCAUUUUAAGGGUA [A95U A111G], the self-cleavage came to 0.05.

As for GUUAACGGUCAUAGGCCAUGGAAACUAGGAGCACCAUUUCGCUGCCAGUGAAGAAAUGAACAAAGAAAAUCUGGGCCAGGCAGGCAUCAAAAGAUAUAGUCUUGCGCUCAACCAGGAAGUCUGUAAUCAUUUUAAGGGUA [A95U A116G], the self-cleavage was determined as 1.

As for GUUAACGGUCAUAGGCCAUGGAAACUAGGAGCACCAUUUCGCUGCCAGUGAAGAAAUGAACAAAGAAAAUCUGGGCCAGGCAGGCAUCAAAAGAUAUAGUCUUGCGCUCAACCAGAAAGUCUGUAAUCAUUCUAAGGGUA [A95U U132C], the self-cleavage was determined as 1.4.

In the case of GUUAACGGUCAUAGGCCAUGGAAACUAGGAGCACCAUUUCGCUGCCAGUGAAGAAAUGAACAAAGAAAAUCUGGGCCAGGCAGGCAUCAAAAGAGAUAGUCUUGCGCUCAACCAGAUAGUCUGUAAUCAUUUUAAGGGUA [A95G A117U], the self-cleavage was 1.7.

Consider GUUAACGGUCAUAGGCCAUGGAAACUAGGAGCACCAUUUCGCUGCCAGUGAAGAAAUGAACAAAGAAAAUCUGGGCCAGGCAGGCAUCAAAAGAGAUAGUCUUGCGCUCAACCAGAGAGUCUGUAAUCAUUUUAAGGGUA [A95G A117G], for which the self-cleavage amounted to 2.65.

Turning to GUUAACGGUCAUAGGCCAUGGAAACUAGGAGCACCAUUUCGCUGCCAGUGAAGAAAUGAACAAAGAAAAUCUGGGCCAGGCAGGCAUCAAAAGAGAUAGUCUUGCGCUCAACCAGAAAGUCUGUAAUCAUUUUAUGGGUA [A95G A135U], the self-cleavage came to 1.45.

Consider GUUAACGGUCAUAGGCCAUGGAAACUAGGAGCACCAUUUCGCUGCCAGUGAAGAAAUGAACAAAGAAAAUCUGGGCCAGGCAGGCAUCAAAAGAGAUAGUCUUGCGCUCAACCAGAAAGUCUGUAAUCAUUUUACGGGUA [A95G A135C], for which the self-cleavage was 2.68.

As for GUUAACGGUCAUAGGCCAUGGAAACUAGGAGCACCAUUUCGCUGCCAGUGAAGAAAUGAACAAAGAAAAUCUGGGCCAGGCAGGCAUCAAAAGAGAUAGUCUUGCGCUCAACCAGAAAGUCUGUAAUCAUUUUAGGGGUA [A95G A135G], the self-cleavage is 2.42.

GUUAACGGUCAUAGGCCAUGGAAACUAGGAGCACCAUUUCGCUGCCAGUGAAGAAAUGAACAAAGAAAAUCUGGGCCAGGCAGGCAUCAAAAGAGAUAGUCUUGCGCUCAACCAGAAAGUCUGUAAUCAUUUUGAGGGUA [A95G A134G]: the self-cleavage worked out at 1.89.

For the variant GUUAACGGUCAUAGGCCAUGGAAACUAGGAGCACCAUUUCGCUGCCAGUGAAGAAAUGAACAAAGAAAAUCUGGGCCAGGCAGGCAUCAAAAGAGAUAGUCUUGCGCUCAACCAGAAAGUCUGUAAUCAUUUUAAGGCUA [A95G G138C], the self-cleavage is 2.62.

As to GUUAACGGUCAUAGGCCAUGGAAACUAGGAGCACCAUUUCGCUGCCAGUGAAGAAAUGAACAAAGAAAAUCUGGGCCAGGCAGGCAUCAAAAGAGAUAGUAUUGCGCUCAACCAGAAAGUCUGUAAUCAUUUUAAGGGUA [A95G C101A], the self-cleavage amounted to 0.52.

For GUUAACGGUCAUAGGCCAUGGAAACUAGGAGCACCAUUUCGCUGCCAGUGAAGAAAUGAACAAAGAAAAUCUGGGCCAGGCAGGCAUCAAAAGAGAUAGUUUUGCGCUCAACCAGAAAGUCUGUAAUCAUUUUAAGGGUA [A95G C101U], the self-cleavage came to 1.28.

For GUUAACGGUCAUAGGCCAUGGAAACUAGGAGCACCAUUUCGCUGCCAGUGAAGAAAUGAACAAAGAAAAUCUGGGCCAGGCAGGCAUCAAAAGAGAUAGUCUUGCGCUCAACCAGAAAGUCUGUGAUCAUUUUAAGGGUA [A95G A125G], the self-cleavage worked out at 1.02.

GUUAACGGUCAUAGGCCAUGGAAACUAGGAGCACCAUUUCGCUGCCAGUGAAGAAAUGAACAAAGAAAAUCUGGGCCAGGCAGGCAUCAAAAGAGAUAGUCUUGCGCUCAACCUGAAAGUCUGUAAUCAUUUUAAGGGUA [A95G A114U]: the self-cleavage came out at 0.42.

On to GUUAACGGUCAUAGGCCAUGGAAACUAGGAGCACCAUUUCGCUGCCAGUGAAGAAAUGAACAAAGAAAAUCUGGGCCAGGCAGGCAUCAAAAGAGAUAGUCUUGCGCUCAACCAGAAAGUCUGUAAUCAUUUCAAGGGUA [A95G U133C], for which the self-cleavage was 1.23.

As for GUUAACGGUCAUAGGCCAUGGAAACUAGGAGCACCAUUUCGCUGCCAGUGAAGAAAUGAACAAAGAAAAUCUGGGCCAGGCAGGCAUCAAAAGAGAUAGUCUUGCGCUCAACUAGAAAGUCUGUAAUCAUUUUAAGGGUA [A95G C113U], the self-cleavage was 0.15.

For GUUAACGGUCAUAGGCCAUGGAAACUAGGAGCACCAUUUCGCUGCCAGUGAAGAAAUGAACAAAGAAAAUCUGGGCCAGGCAGGCAUCAAAAGAGAUAGUCUUGCGCUCAACCAGAAAGUCUGUAAUCAUUUUAAGGGCA [A95G U139C], the self-cleavage was 2.07.

With GUUAACGGUCAUAGGCCAUGGAAACUAGGAGCACCAUUUCGCUGCCAGUGAAGAAAUGAACAAAGAAAAUCUGGGCCAGGCAGGCAUCAAAAGAGAUAGUCUUGCGCUCAACCAGAAAGUCUGUAAUCAUUUUAAGGGAA [A95G U139A], the self-cleavage turned out to be 2.01.

Take GUUAACGGUCAUAGGCCAUGGAAACUAGGAGCACCAUUUCGCUGCCAGUGAAGAAAUGAACAAAGAAAAUCUGGGCCAGGCAGGCAUCAAAAGAGAUAGUCUUGCGCUCAACCAGAAAGUCUGUAAUCAUUUUAAGGGGA [A95G U139G]: the self-cleavage worked out at 2.68.

As for GUUAACGGUCAUAGGCCAUGGAAACUAGGAGCACCAUUUCGCUGCCAGUGAAGAAAUGAACAAAGAAAAUCUGGGCCAGGCAGGCAUCAAAAGAGAUAGUCUUGCGCUCAACCAGAAAGUCUGUAAUCUUUUUAAGGGUA [A95G A129U], the self-cleavage is 1.52.

Take GUUAACGGUCAUAGGCCAUGGAAACUAGGAGCACCAUUUCGCUGCCAGUGAAGAAAUGAACAAAGAAAAUCUGGGCCAGGCAGGCAUCAAAAGAGAUAGUCUUGCGCUCAACCAGAAAGUCUGUAGUCAUUUUAAGGGUA [A95G A126G]: the self-cleavage came to 1.12.

As to GUUAACGGUCAUAGGCCAUGGAAACUAGGAGCACCAUUUCGCUGCCAGUGAAGAAAUGAACAAAGAAAAUCUGGGCCAGGCAGGCAUCAAAAGAUAUAGUCUUGCGCUCAACCAGAAAGUCCGUAAUCAUUUUAAGGGUA [A95U U122C], the self-cleavage turned out to be 1.44.

On to GUUAACGGUCAUAGGCCAUGGAAACUAGGAGCACCAUUUCGCUGCCAGUGAAGAAAUGAACAAAGAAAAUCUGGGCCAGGCAGGCAUCAAAAGAGAUAGUCUUGCGCUCAACCAGAAAGCCUGUAAUCAUUUUAAGGGUA [A95G U120C], for which the self-cleavage came to 1.82.

As for GUUAACGGUCAUAGGCCAUGGAAACUAGGAGCACCAUUUCGCUGCCAGUGAAGAAAUGAACAAAGAAAAUCUGGGCCAGGCAGGCAUCAAAAGAGAUAGUCUUGCGCUCAACCAGAAAGACUGUAAUCAUUUUAAGGGUA [A95G U120A], the self-cleavage came to 2.78.

On to GUUAACGGUCAUAGGCCAUGGAAACUAGGAGCACCAUUUCGCUGCCAGUGAAGAAAUGAACAAAGAAAAUCUGGGCCAGGCAGGCAUCAAAAGAUAUAGUCUUGCGCUCAACCAGAAAGUCUGUAAUCAUUUUGAGGGUA [A95U A134G], for which the self-cleavage is 1.48.
